For seven proteins, Km results are on record in publication PMC3017781, “Structure-function relationships of wheat flavone O-methyltransferase: Homology modeling and site-directed mutagenesis” (BMC Plant Biology, 2010).

In general, Km refers to the substrate concentration at which the rate is half of its maximum.

To fix the notation:
B1: TaOMT2 (Triticum aestivum) (protein)
chain: MGSIAAGADEDACMYALQLVSSSILPMTLKNAIELGLLETLMAAGGKFLTPAEVAAKLPSAANPEAPDMVDRMLRLLASYNVVSCRTEDGKDGRLSRRYGAAPVCKYLTPNEDGVSMSALALMNQDKVLMESWYYLKDAVLDGGIPFNKAYGMSAFEYHGTDPRFNRVFNEGMKNHSIIITKKLLESYKGFEGLGTLVDVGGGVGATVAAITAHYPTIKGINFDLPHVISEAPPFPGVTHVGGDMFQKVPSGDAILMKWILHDWSDEHCATLLKNCYDALPAHGKVVLVECILPVNPEATPKAQGVFHVDMIMLAHNPGGRERYEREFEALAKGAGFAAMKTTYIYANAWAIEFTK
notes: full length, 356 residues, vector pET200/D-TOPO, expressed in E. coli BL21 (DE3), Ni-NTA purified, tag removal not mentioned; dimer in solution (monomers also active)
B2: TaOMT2 (Triticum aestivum; V309I) (protein)
chain: B1 chain with V309I
notes: as for B1
B3: TaOMT2 (Triticum aestivum; W259A) (protein)
chain: B1 chain with W259A
B4: TaOMT2 (Triticum aestivum; D263N) (protein)
chain: B1 chain with D263N
B5: TaOMT2 (Triticum aestivum; W259Y) (protein)
chain: B1 chain with W259Y
B6: TaOMT2 (Triticum aestivum; G305S) (protein)
chain: B1 chain with G305S
B7: TaOMT2 (Triticum aestivum; E322I) (protein)
chain: B1 chain with E322I

Where a chain is given by its changes, count along the chain named. Numbers in names are those of the source.

Substrate in the first series: COc1cc(/C=C/C(=O)O)cc(O)c1O
The series is described as follows: radiometric methyltransferase assay with [3H]SAM, Lineweaver-Burk. The format is biochemical, Triticum aestivum. The conditions noted are these: co-substrate SAM (AdoMet) 1 mM, 30°C, 15 min.
Source text: radiometric methyltransferase assay with [3H]SAM, Lineweaver-Burk on TaOMT2
On to B1, for which the Km was 270.98 ± 11.51 µM. Same read-out and setting: with B2 the figure was 18.24 ± 1.72 µM.

Substrate in another series: O=c1cc(-c2cc(O)c(O)c(O)c2)oc2cc(O)cc(O)c12
The series is described as follows: purified protein. Particulars: co-substrate SAM (AdoMet) 1 mM, 30°C, 15 min.
Regarding B1, the Km stood at 59.51 ± 0.79 µM. On the same count and under the same terms, with B2 the figure was 101.08 ± 9.68 µM.

Staying with this series, now noted: co-substrate SAM, saturating.
On to B3, for which the Km came out at 131.0 µM. Take B4: the Km turned out to be 128.2 µM. On the same count and under the same terms, the figure for B5 is 170.1 µM; for B6 it is 118.41 µM. Still for that read-out and setting: with B7 the figure was 193.17 µM.
